In US20060280804A1:

Target: angiotensin converting enzyme (ACE, EC 3.4.15.1, Sigma)
Assay: cell-based or functional assay

## ovalbumin grade VI (99% purity, Sigma), unhydrolysed (from UniProt P01012 2-386)
  ACEI activity, IC50: > 750 µg/mL
